Test results taken from US20150005368.

Target: ERBB2 (HER2) (Homo sapiens?) (UniProt P04626)
Assay: filter
Details: for Kd: same buffer, 37 C

GAGTGACCGTCTGCCTGATGTTAGAGTTTGCCTGAGTGCCTCGCAAGGGCGTAACAACAGCCACACCACCAGCC [clone #11 (1194-2, 9-ER-N-B12_C06)]
Kd (6 (n) = NapdU [n positions 19,21,22,27,28,29,33,37,41,52 = modified dU], Bmax 0.29): 3.06 nM

GAGTGACCGTCTGCCTGGTCTGAACACCGAGATTAGCCGAACGAACGGTATGGACGTCAGCCACACCACCAGCC [clone #33 (9-ER-N-F02_A09)]
Kd (6 (n) in core = NapdU [n positions 19,21,33,34,49,51,57 = modified dU], Bmax only 0.03): 9.79 nM

GAGTGACCGTCTGCCTGGTTAGACTGAACGCACTGAGGGCCGCAGCCTATCTGAAGGCAGCCACACCACCAGCC [clone #10 (9-ER-N-B09_B06)]
Kd (6 (n) in core = NapdU [n positions 19,20,25,34,48,50,52 = modified dU], Bmax 0.25): 3.71 nM

ATGTTAGAGTTTGCCTGAGTGCCTCGCAAGGGCGTAACAA [AP001-24 (1194-34, #11 short)]
selectivity ratio (ERBB2 over EGFR affinity) (6 (n) = NapdU [n positions 2,4,5,10,11,12,16,20,24,35 = modified dU], affinity for ERBB2 relative to EGFR, curve in figure only): > 1000 fold
